Results from publication PMC12530519.

Target: Ty1c CA(F323S) (S. cerevisiae)
Assay: SEC-MALS; individual proteins, 12.5-200 µM, Superdex INCREASE 200 10/300 GL at 298 K, 50 mM Tris-HCl, 800 mM NaCl, 0.5 mM TCEP, 3 mM NaN3, pH 8.5

stoichiometry N: 2
Substance: Ty1c CA(F323S) (domain or fragment)
